Experiments:
[1] = biological target: T1, GST-PCNA (UniProt P12004 1-261); test: ITC
[2] = biological target: T1, GST-PCNA; test: ITC; remark: listed apart in the source

T1 sequence (P12004 whole entry): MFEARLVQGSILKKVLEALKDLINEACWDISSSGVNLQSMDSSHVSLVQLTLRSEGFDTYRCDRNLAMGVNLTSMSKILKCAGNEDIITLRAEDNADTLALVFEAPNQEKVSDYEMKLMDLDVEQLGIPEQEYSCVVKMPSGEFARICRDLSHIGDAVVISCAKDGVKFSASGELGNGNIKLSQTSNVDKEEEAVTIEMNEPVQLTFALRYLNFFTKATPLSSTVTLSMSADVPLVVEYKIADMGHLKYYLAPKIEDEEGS

B1: H3K79me0 peptide (amino acids H3 75-83) (peptide)
chain: AQDFKTDLR
Ka [1]: 1.16e+06 M⁻¹
Kd [2]: 1330 nM

Reference: paper PMC7653264 (2020)
